Assay results from paper PMC13397619.

B1: NLV3 TCR beta chain (CDR3β only) (parent)
chain: ASSPTGGSPSPLH
partner: NLCPMVATV

Variants of: B1
Experiment: T-Switch: Jurkat TCRβ−/− cells expressing a CDR3 saturation-mutagenesis library, stained with two peptide-HLA-A*02:01 tetramers (original and novel peptide) plus anti-CD3, FACS-sorted into four gates, gDNA sequenced
Settings: with HLA-A*02:01 with peptide … (NLV 2-1, the novel peptide), tetramers 1 µg/mL, 30 min on ice, SP, DP and SW gates expanded about 10 days between rounds ('two to three rounds of selection' in the Methods), gate SW: higher = more of the variant in the gate that binds the novel peptide and not the original one = switched binding. Fold enrichment of the CDR3 variant in one FACS gate of a two-tetramer stain, unresolved parent, parent is a CDR3 fragment, scale: fold enrichment, numbering: sequential-on-construct, sequence starts at 1

Row | Variant | enrichment
1 | […] (CDR3 as printed); T5V derived by comparing it with the table's wild-type CDR3 ASSPTGGSPSPLH | 0
2 | […] (CDR3 as printed); H13V derived by comparing it with the table's wild-type CDR3 ASSPTGGSPSPLH | 0
3 | […] (CDR3 as printed); P4S derived by comparing it with the table's wild-type CDR3 ASSPTGGSPSPLH | 0
4 | […] (CDR3 as printed); S10P derived by comparing it with the table's wild-type CDR3 ASSPTGGSPSPLH | 0
5 | […] (CDR3 as printed); T5M derived by comparing it with the table's wild-type CDR3 ASSPTGGSPSPLH | 0
6 | […] (CDR3 as printed); G7T derived by comparing it with the table's wild-type CDR3 ASSPTGGSPSPLH | 0
7 | […] (CDR3 as printed); L12G derived by comparing it with the table's wild-type CDR3 ASSPTGGSPSPLH | 0
8 | […] (CDR3 as printed); T5C derived by comparing it with the table's wild-type CDR3 ASSPTGGSPSPLH | 0
9 | […] (CDR3 as printed); S2H derived by comparing it with the table's wild-type CDR3 ASSPTGGSPSPLH | 0
10 | […] (CDR3 as printed); L12S derived by comparing it with the table's wild-type CDR3 ASSPTGGSPSPLH | 0
11 | […] (CDR3 as printed); A1V derived by comparing it with the table's wild-type CDR3 ASSPTGGSPSPLH | 0
12 | […] (CDR3 as printed); A1Y derived by comparing it with the table's wild-type CDR3 ASSPTGGSPSPLH | 0
13 | […] (CDR3 as printed); T5Y derived by comparing it with the table's wild-type CDR3 ASSPTGGSPSPLH | 0
14 | […] (CDR3 as printed); G7N derived by comparing it with the table's wild-type CDR3 ASSPTGGSPSPLH | 0
15 | […] (CDR3 as printed); P4K derived by comparing it with the table's wild-type CDR3 ASSPTGGSPSPLH | 0
16 | […] (CDR3 as printed); P11W derived by comparing it with the table's wild-type CDR3 ASSPTGGSPSPLH | 0
17 | […] (CDR3 as printed); S3T derived by comparing it with the table's wild-type CDR3 ASSPTGGSPSPLH | 0
18 | […] (CDR3 as printed); S8T derived by comparing it with the table's wild-type CDR3 ASSPTGGSPSPLH | 0
19 | […] (CDR3 as printed); S3V derived by comparing it with the table's wild-type CDR3 ASSPTGGSPSPLH | 0
20 | […] (CDR3 as printed); G7A derived by comparing it with the table's wild-type CDR3 ASSPTGGSPSPLH | 0
21 | […] (CDR3 as printed); P11Q derived by comparing it with the table's wild-type CDR3 ASSPTGGSPSPLH | 0

Row | Variant | enrichment
22 | […] (CDR3 as printed); S10L derived by comparing it with the table's wild-type CDR3 ASSPTGGSPSPLH | 0
23 | […] (CDR3 as printed); A1R derived by comparing it with the table's wild-type CDR3 ASSPTGGSPSPLH | 0
24 | […] (CDR3 as printed); P4R derived by comparing it with the table's wild-type CDR3 ASSPTGGSPSPLH | 0
25 | […] (CDR3 as printed); S3W derived by comparing it with the table's wild-type CDR3 ASSPTGGSPSPLH | 0
26 | […] (CDR3 as printed); S8R derived by comparing it with the table's wild-type CDR3 ASSPTGGSPSPLH | 0
27 | […] (CDR3 as printed); P11A derived by comparing it with the table's wild-type CDR3 ASSPTGGSPSPLH | 0
28 | […] (CDR3 as printed); G7E derived by comparing it with the table's wild-type CDR3 ASSPTGGSPSPLH | 0
29 | […] (CDR3 as printed); G6T derived by comparing it with the table's wild-type CDR3 ASSPTGGSPSPLH | 0
30 | […] (CDR3 as printed); G6N derived by comparing it with the table's wild-type CDR3 ASSPTGGSPSPLH | 0
31 | […] (CDR3 as printed); S3P derived by comparing it with the table's wild-type CDR3 ASSPTGGSPSPLH | 0
32 | […] (CDR3 as printed); P9G derived by comparing it with the table's wild-type CDR3 ASSPTGGSPSPLH | 0
33 | […] (CDR3 as printed); P9Q derived by comparing it with the table's wild-type CDR3 ASSPTGGSPSPLH | 0
34 | […] (CDR3 as printed); L12N derived by comparing it with the table's wild-type CDR3 ASSPTGGSPSPLH | 0
35 | […] (CDR3 as printed); S3I derived by comparing it with the table's wild-type CDR3 ASSPTGGSPSPLH | 0
36 | […] (CDR3 as printed); G6M derived by comparing it with the table's wild-type CDR3 ASSPTGGSPSPLH | 0
37 | […] (CDR3 as printed); S3K derived by comparing it with the table's wild-type CDR3 ASSPTGGSPSPLH | 0
38 | […] (CDR3 as printed); A1M derived by comparing it with the table's wild-type CDR3 ASSPTGGSPSPLH | 0
39 | […] (CDR3 as printed); G6H derived by comparing it with the table's wild-type CDR3 ASSPTGGSPSPLH | 0
40 | […] (CDR3 as printed); S2P derived by comparing it with the table's wild-type CDR3 ASSPTGGSPSPLH | 0
41 | […] (CDR3 as printed); S2R derived by comparing it with the table's wild-type CDR3 ASSPTGGSPSPLH | 0
42 | […] (CDR3 as printed); A1K derived by comparing it with the table's wild-type CDR3 ASSPTGGSPSPLH | 0
